Results as given in PMC4072508, “Genome-Wide Prediction and Validation of Peptides That Bind Human Prosurvival Bcl-2 Proteins” (PLoS Computational Biology, 2014).

Each binder was assayed against Bcl-xL, Q07817 (assay: peptide SPOT array, c-Myc-tagged receptor at 1 uM or 100 nM, anti-c-Myc-Cy3).
Chain of Bcl-xL, Q07817 (Q07817 1-209): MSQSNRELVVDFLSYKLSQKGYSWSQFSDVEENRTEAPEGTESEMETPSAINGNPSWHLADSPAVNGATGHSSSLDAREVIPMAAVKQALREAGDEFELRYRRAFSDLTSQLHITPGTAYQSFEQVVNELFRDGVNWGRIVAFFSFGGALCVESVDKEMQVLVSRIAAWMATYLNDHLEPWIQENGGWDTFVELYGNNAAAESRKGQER

Compared with GKDHPDVAKQLNNLALLCQNQGKYEE [KLC1], DNHKKKTVKMDEYLGKDVLHGVFNYL is higher in SPOT signal as a fraction of Bim BH3's signal on the same receptor and array: 0.02 for the first, 0.11 for the second.

First: WRERPDVGRYLRELSGSGLERLRREP [COG8]
Second: EEIIHKLAMQLRHILDNIDHRMVRED [PXT1]
The SPOT signal as a fraction of Bim BH3's signal on the same receptor and array of the first is higher: 0.09 for the first, 0.02 for the second.

Going from PFDCRDYAVVLRKYLDKIYNISMKHP [FOLH1B] to GELAQVSGLEMRKWLDELFIIIMDML [mTOR], the SPOT signal as a fraction of Bim BH3's signal on the same receptor and array falls from 0.51 to 0.02.

First: GAQHSTMTSTLRRLLEDIFKGVVTKG
Second: VYILRKAARRLAQVSRAAGVRVGLLS
The SPOT signal as a fraction of Bim BH3's signal on the same receptor and array of the first is lower: 0.19 for the first, 0.76 for the second.

Compared with VYILRKAARRDAQVSRAAGVRVGLLS, KFELEQNIKELNTLADQVDTTHELLT [APOL5] is lower in SPOT signal as a fraction of Bim BH3's signal on the same receptor and array: 0.94 for the first, 0.02 for the second.

Compared with AHKARALARLDRQTALAAFSDFKRLQ, LASIGGLAARLQLWAFKLDYDSMERE [FHOD1] is lower in SPOT signal as a fraction of Bim BH3's signal on the same receptor and array: 1.22 for the first, 0.03 for the second.

First: KAIFDRLCKQLEKIGQQVDREPGDVA [ORC6L]
Second: VIKQRRLPDQLSKLLDRIQLSGRYYL
The SPOT signal as a fraction of Bim BH3's signal on the same receptor and array of the first is lower: 0.04 for the first, 0.84 for the second.

Going from KTALEKYHDGIEKAAEDSYAKIDEKT [NUF2] to SSLSDGLPVHDANIADELTQKKKMFK, the SPOT signal as a fraction of Bim BH3's signal on the same receptor and array rises from 0.02 to 0.03.

Compared with RRRLLLASKELHQVAHDLDDELAWVQ [SPTBN4], TCRISESVKKLMELAYQTLLEATTSS [ZW10] is lower in SPOT signal as a fraction of Bim BH3's signal on the same receptor and array: 0.06 for the first, 0.04 for the second.

Going from DIFMNNVIVRLSQISEDVIRLFKKSK [SRGAP3] to SSLSDGLPVHLANILDELTQKKKMFK, the SPOT signal as a fraction of Bim BH3's signal on the same receptor and array falls from 0.18 to 0.1.

Going from RGRTRGWVQTLARMSRRTRGPVERAA [C6orf223] to AIKPVSFIRDDKKIARHFRFGNQEDA [USP36], the SPOT signal as a fraction of Bim BH3's signal on the same receptor and array rises from 0.75 to 1.34.

Compared with TREAQKMAQLLVVLGKIINMKIKLFM [UGGT2], TNISWRACDHLRCILCDFLVVSYDDY [C8orf37] is lower in SPOT signal as a fraction of Bim BH3's signal on the same receptor and array: 0.1 for the first, 0.03 for the second.

Compared with RTNNYQLSDELRKNLVELTSLRQKVA [GRIPAP1], GRQVEDAGRVLEGISKSISYDLDGEE [FIBIN] is lower in SPOT signal as a fraction of Bim BH3's signal on the same receptor and array: 0.52 for the first, 0.02 for the second.

Going from PFDCRDYAVVDRKYADKIYSISMKHP [FOLH1] to YEQAKNISQDLEKQAARVHEEAKRAG [LAMC1], the SPOT signal as a fraction of Bim BH3's signal on the same receptor and array falls from 0.45 to 0.03.

First: ENGHTDVADVLLQAGADLEHESEGGR [ANKRD17]
Second: LRQMQECAKRIAKVSAEAKLEIDEET [SKIV2L2]
The SPOT signal as a fraction of Bim BH3's signal on the same receptor and array of the first is lower: 0.02 for the first, 0.03 for the second.

First: MGVLAAAARCDVRGADRMSKWTSKRG [MRPL41]
Second: DISLSNSGFKDVNFGCDYHQYRDKFS [PION]
The SPOT signal as a fraction of Bim BH3's signal on the same receptor and array of the first is higher: 0.56 for the first, 0.03 for the second.

First: FEKLRMIAKEDRHVGRMASVNMDPAL
Second: AHKARALARLLRQTLLAAFSDFKRLQ
The SPOT signal as a fraction of Bim BH3's signal on the same receptor and array of the first is lower: 0.13 for the first, 0.59 for the second.

Going from GAQHSTMTSTDRRLGEDIFKGVVTKG to DTIFHRAAVRDRDLGGAILRHARRQA [BRPF3], the SPOT signal as a fraction of Bim BH3's signal on the same receptor and array rises from 0.03 to 1.5.

Going from NEEGQQFALKLHRLLRTSFRNLKNKR [RIOK2] to HSEITPYATDLAQTSEKLIPHLHKLP [CCDC129], the SPOT signal as a fraction of Bim BH3's signal on the same receptor and array falls from 0.69 to 0.02.

Going from ATKRETAATFDKKVAKEFGFQNNGFS [NPLOC4] to PHQFDGVPDKDIQAAYQVKYNSKKMK [EVI5], the SPOT signal as a fraction of Bim BH3's signal on the same receptor and array rises from 0.24 to 0.58.

SQDFSELSTQLTGVARDLQEEMLPGS [MON1A] and GFQVLNAIENLDDNAQRYDLDGLEKA [C9orf167] are the same in SPOT signal as a fraction of Bim BH3's signal on the same receptor and array: 0.03 for the first, 0.03 for the second.

Going from EVDVGKLVSRLQDGGTKITPKATNGP [OPHN1] to NESLTDTARVLSSMADAVLARVYKQS [OTC], the SPOT signal as a fraction of Bim BH3's signal on the same receptor and array rises from 0.02 to 0.03.

Going from REEIRKVVQSLEQTAREILTLLQGVH [TSN] to TCELGEFVKNIDQVSSEVLEGWPDSY [TLR1], the SPOT signal as a fraction of Bim BH3's signal on the same receptor and array falls from 0.04 to 0.02.

PKIYEGAARKLNVSSDTVQHGVEGLT [COMMD2] and EVNMSLSGRYLEELSQRYRKQMEEMQ [C1orf9] are the same in SPOT signal as a fraction of Bim BH3's signal on the same receptor and array: 0.03 for the first, 0.03 for the second.

First: FQEAKQFGQKLQDLAEHSDPEVRDKV [ARMCX5]
Second: GENIRQAASSLQQASLKLFEMAYKKM [HSPA9]
The SPOT signal as a fraction of Bim BH3's signal on the same receptor and array of the first is lower: 0.02 for the first, 0.09 for the second.

Going from DISALTASNLLKKYLEKYSGILEGPV [FIGN] to NPIGLYSAETLREMAQMYQMSLRGKA [LDB3], the SPOT signal as a fraction of Bim BH3's signal on the same receptor and array rises from 0.13 to 0.3.

GEGAEEAAKDLADIAAFFRSGFRKND [TRIO] and QEELQDWVKKIREVAQTADARLTEGK [PLCG1] are the same in SPOT signal as a fraction of Bim BH3's signal on the same receptor and array: 0.03 for the first, 0.03 for the second.

Binder DNHKKKTVKMLEYLLKDVLHGVFNYL has an SPOT signal as a fraction of Bim BH3's signal on the same receptor and array of 0.24.
